Changes are numbered by the printed parent chain.
T1: human CD39 (full length, on cells) (human, UniProt P49961 1-510)
T1 construct: Recombinant on CHOK1-hCD39 cells or natural on SK-MEL-28, SK-MEL-5 and MOLP-8 cells; the cell line is named under assay; also called hCD39; ENTPD1
T1 sequence: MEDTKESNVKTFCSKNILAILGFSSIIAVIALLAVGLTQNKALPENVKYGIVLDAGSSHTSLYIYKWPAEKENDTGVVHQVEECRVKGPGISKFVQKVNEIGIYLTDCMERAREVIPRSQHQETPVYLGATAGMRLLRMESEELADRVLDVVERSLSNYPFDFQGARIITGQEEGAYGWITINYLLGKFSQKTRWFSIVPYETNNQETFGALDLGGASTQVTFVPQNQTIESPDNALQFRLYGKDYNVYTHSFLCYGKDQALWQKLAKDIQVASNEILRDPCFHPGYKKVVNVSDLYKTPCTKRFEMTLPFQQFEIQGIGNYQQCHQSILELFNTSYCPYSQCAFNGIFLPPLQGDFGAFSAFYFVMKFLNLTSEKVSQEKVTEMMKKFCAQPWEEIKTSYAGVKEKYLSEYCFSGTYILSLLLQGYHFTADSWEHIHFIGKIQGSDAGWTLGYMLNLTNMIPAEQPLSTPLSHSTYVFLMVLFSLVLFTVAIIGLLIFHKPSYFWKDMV

T2: cynomolgus CD39 (full length, on CHOK1-cynoCD39 cells) (cynomolgus monkey, UniProt A0A7N9DGH8 1-510)
T2 construct: whole, on cells; also called cCD39
T2 sequence: T1 sequence with V47I, F94Y, V221I, I230T, I329V, K368N, A391S, F489V, T490I

T3: mouse CD39 (full length, on CHOK1-mCD39 cells) (mouse, UniProt P55772 1-510)
T3 construct: whole, on cells
T3 sequence (looked up): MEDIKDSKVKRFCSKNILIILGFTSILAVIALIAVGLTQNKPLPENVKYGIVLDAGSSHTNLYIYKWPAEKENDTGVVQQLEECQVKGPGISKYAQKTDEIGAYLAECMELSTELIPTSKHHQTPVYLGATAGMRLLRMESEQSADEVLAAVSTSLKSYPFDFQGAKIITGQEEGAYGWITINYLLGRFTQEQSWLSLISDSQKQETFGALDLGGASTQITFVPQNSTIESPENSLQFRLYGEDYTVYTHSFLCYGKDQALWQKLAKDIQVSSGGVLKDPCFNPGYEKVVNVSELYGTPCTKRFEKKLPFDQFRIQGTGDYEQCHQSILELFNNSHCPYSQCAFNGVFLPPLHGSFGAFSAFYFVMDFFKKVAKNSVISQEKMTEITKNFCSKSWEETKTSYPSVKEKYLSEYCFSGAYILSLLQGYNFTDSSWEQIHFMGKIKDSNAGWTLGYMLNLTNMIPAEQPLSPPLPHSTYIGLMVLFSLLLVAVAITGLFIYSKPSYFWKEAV

B1: mAb19 (antibody, V domains shown)
VH: EVKLEKSGGGLVQPGGSMKLSCVASGFTFSNYWMNWVRQSPEKGLEWVAQIRLNPDNYATHYAESVKGRFTISRDDYKNSVYLQMSSLRAEDSGIYYCTQHGSRGFAYWGQGTLVTVS
VL: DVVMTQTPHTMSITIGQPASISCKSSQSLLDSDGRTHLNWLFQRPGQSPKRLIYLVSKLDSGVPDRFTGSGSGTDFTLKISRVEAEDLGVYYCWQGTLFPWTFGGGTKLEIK
notes: mouse hybridoma antibody
B2: mAb21 (antibody, V domains shown)
VH: EVKLEKSGGGLVQPGGSMKLSCVASGFTFSNYWMNWVRQSPEKGLEWVAQIRLNPDNYATHFAESVKGRFTISRDDSKNSVYLQMNSLRAEDTGIYYCTEHGTRGFAYWGQGTLVTVSE
VL: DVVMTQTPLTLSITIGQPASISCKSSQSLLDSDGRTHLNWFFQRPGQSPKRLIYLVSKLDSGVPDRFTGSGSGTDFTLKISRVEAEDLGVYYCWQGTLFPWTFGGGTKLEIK
notes: mouse hybridoma antibody
B3: mAb23 (antibody, V domains shown)
VH: EVQLQQSGAELLRPGASVKLSCTASGYNLKDTFLHWVKQRPEQGLEWIGRIDPANGNIKYDPKFQGKATLTADTSSNTAYLQLISLTSEDTAVYYCANSPYYYGSGYRIFDVWGAGTTVTVSS
VL: QIVLTQSPAIMSASPGEKVTITCSAFSSVNYMHWYQQKPGTSPKLLIYTTSNLASGVPTRFSGSGSGTSYSLTISRMEAEDAATYYCQQRSTYPFTFGSGTKLEIQ
notes: mouse hybridoma antibody

How the values were obtained:
[1] = molecular target: T1, human CD39 (full length, on cells); assay: FACS competition on CHOK1-hCD39; competitor mAb14-Alexa488
Protocol: (§1) Anti-CD39 antibodies were labeled using Alex488 labeling kit and were diluted in a series of concentrations, before mixing with CHOK1-hCD39 cells to test binding EC₅₀using FACS. The non-labeled antibodies were tested for their blocking efficacy to the labelled ones. Briefly, mononuclear CHOK1-hCD39 cells were prepared to 2×10⁶/ml and plated into 96 well at 50 μl/well, then mixed with antibodies gradients to final volume at 100 μl, and then equal volume of Alex488 label antibodies were added at two folds EC80 concentration. 96 well plates were incubated at 4° C. for 1 hour, and spun down and washed 3 times with 200 μl FACS buffer. The FACS analysis was performed on FACScelesta machine and data was analyzed by Flowjo software. The blocking percentages were calculated and those having above 80% competition rate were allocated into one epitope group, compared with the non-competing well (Alex488 labeled antibody only).
(§2) Based on the competition results, the 4 anti-CD39 hybridoma antibodies (mAb14, mAb19, mAb21, mAb23) can be grouped into 4 different epitope groups, as shown in Table 11.

[2] = molecular target: T1, human CD39 (full length, on cells); assay: cell-based or functional assay
[3] = molecular target: T1, human CD39 (full length, on cells); assay: FACS competition on CHOK1-hCD39; competitor mAb19-Alexa488
Protocol: as §1, §2

[4] = molecular target: T1, human CD39 (full length, on cells); assay: FACS competition on CHOK1-hCD39; competitor mAb21-Alexa488
Protocol: as §1, §2

[5] = molecular target: T1, human CD39 (full length, on cells); assay: FACS competition on CHOK1-hCD39; competitor 9-8B-Alexa488
Protocol: as §1, §2

[6] = molecular target: T1, human CD39 (full length, on cells); assay: FACS competition on CHOK1-hCD39; competitor mAb23-Alexa488
Protocol: as §1, §2

[7] = molecular target: T2, cynomolgus CD39 (full length, on …); assay: FACS, CHOK1-cynoCD39 cells
Description: (§3) FACS were used to determine binding of the antibodies to cell lines expressing CD39 naturally (SK-MEL-28) or recombinantly (CHOK1-hCD39, CHOK1-cynoCD39, and CHOK1-mCD39), or with cells lacking CD39 expression (CHOK1-blank) as a negative control.
(§4) CHOK1-hCD39, CHOK1-cCD39, CHOK1-mCD39 and CHOK1-blank cells were maintained in culture medium according to ATCC procedure. Cells were collected and re-suspended in blocking buffer at a density of 3×10⁶ cells/ml. Cells were transferred to 96 well FACS plates at 100 μl/well (3×10⁵ cells/well), the plates were centrifuged and washed twice with FACS buffer (PBS, 1% FBS, 0.05% Tween-20). 4-folds serial dilution of anti-CD39 antibodies were prepared in FACS buffer starting from 30 μg/ml. Reference antibody 9-8B and mouse/human control IgG were used as positive and negative controls, respectively. Cells were re-suspended in 100 μL/well diluted antibodies, and the plates were incubated at 4° C. for 60 min. […] The plates were washed with FACS buffer, and cells were re-suspended in 100 μL/well of PBS. Cells were then analyzed with FACSVerse™ and mean fluorescence intensity were determined. Full binding curves were generated on the CD39 expressing cells by testing a range of antibody concentrations. Apparent affinity was determined for each antibody using Prism software.

[8] = molecular target: T1, human CD39 (full length, on cells); assay: FACS, SK-MEL-28 cells
Protocol: as §3
Similarly, human CD39 expressing cells SK-MEL-5, SK-MEL-28 or MOLP-8, were incubated with a gradient concentration of anti-CD39 antibodies for 30 minutes at 4° C. Cells were washed 3 times using FACS buffer and next incubated with fluorescence labelled secondary antibody (goat-anti-mouse IgG or goat anti-human IgG) for 30 minutes at 4° C. Cells were washed 3 times and then re-suspended in FACS buffer and analyzed by flow cytometry analysis on BD Celesta. Data plotted and analyzed using GraphPad Prism 8.02.

[9] = molecular target: T3, mouse CD39 (full length, on CHOK1-mCD39 …); assay: FACS, CHOK1-mCD39 cells
Description: as §3, §4

[10] = molecular target: T1, human CD39 (full length, on cells); assay: FACS, CHOK1-hCD39 cells
Description: as §3, §4

Binder | blocking percentage [1] | SK-MEL-28 cell based ATPase inhibition % at 10 nM [2] | blocking percentage [3] | blocking percentage [4] | blocking percentage [5] | blocking percentage [6] | EC50 [7] | EC50 [8] | binding result [9] | EC50 [10]
B1 | 23% | 65% | 96% | 83% | 6% | 91% | 5.8 nM | 46 nM | no binding (tested: 30 µg/ml highest concentration) | 4.5 nM
B2 | 24% | 70% | 98% | 90% | 20% | 97% | 11 nM | 90 nM | no binding (tested: 30 µg/ml highest concentration) | 6.7 nM
B3 | 86% | 75% | 98% | 93% | 98% | 100% | 2.3 nM | 1.6 nM | no binding (tested: 30 µg/ml highest concentration) | 1.7 nM

— US20210388105A1 (ELPISCIENCE SUZHOU BIOPHARMA, published 2021)
